This experiment concerns the target BTN3A1 BFI (JM+B30.2) (Homo sapiens, UniProt O00481). The experiment can be described thus: ITC. Background: ITC needs no label: the signal is the heat of the interaction.

By Kd is commonly meant the free concentration of one partner at which half of the binding sites on the other are occupied at equilibrium, for simple one-to-one binding. Read a high Kd as lower affinity.

Chain of BTN3A1 BFI (JM+B30.2) (O00481 272-513): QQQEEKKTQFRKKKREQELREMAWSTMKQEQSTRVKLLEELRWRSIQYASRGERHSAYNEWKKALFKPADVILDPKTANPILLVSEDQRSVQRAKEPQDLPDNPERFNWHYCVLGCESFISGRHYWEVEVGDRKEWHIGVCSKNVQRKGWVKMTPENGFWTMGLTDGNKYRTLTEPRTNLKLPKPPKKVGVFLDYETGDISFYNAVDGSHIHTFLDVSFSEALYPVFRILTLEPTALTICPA

B1: BTN2A1 ID271 (JM+B30.2) (protein)
chain: KLQKEKKILSGEKEFERETREIALKELEKERVQKEEELQVKEKLQEELRWRRTFLHAVDVVLDPDTAHPDLFLSEDRRSVRRCPFRHLGESVPDNPERFDSQPCVLGRESFASGKHYWEVEVENVIEWTVGVCRDSVERKGEVLLIPQNGFWTLEMHKGQYRAVSSPDRILPLKESLCRVGVFLDYEAGDVSFYNMRDRSHIYTCPRSAFSVPVRPFFRLGCEDSPIFICPALTGANGVTVPEEGLTLHRVGTHQSL
modifications: HMBPP
B1 yielded a Kd of 0.78 µM.

B2: BTN2A1 ID271 (JM+B30.2) (protein)
chain: KLQKEKKILSGEKEFERETREIALKELEKERVQKEEELQVKEKLQEELRWRRTFLHAVDVVLDPDTAHPDLFLSEDRRSVRRCPFRHLGESVPDNPERFDSQPCVLGRESFASGKHYWEVEVENVIEWTVGVCRDSVERKGEVLLIPQNGFWTLEMHKGQYRAVSSPDRILPLKESLCRVGVFLDYEAGDVSFYNMRDRSHIYTCPRSAFSVPVRPFFRLGCEDSPIFICPALTGANGVTVPEEGLTLHRVGTHQSL
modifications: 4-M-HMBPP
The molecule B2 showed a Kd of 190 µM.

(Values after PMC10665462 (2023).)
